Source: patent US20240262791A1 (University of California, published 2024)

Target: Spike protein on SARS-CoV-2 GFP Reporter Virus Particles (pseudotyped lentivirus), wild-type strain (SARS-CoV-2, UniProt P0DTC2 14-1273)
Assay: cell-based or functional assay

B1: Wildtype SR4 nanobody (VHH)
VHH: QVQLVESGGGLVQAGGSLRLSCAASGFPVYSWNMWWYRQAPGKEREWVAAIESHGDSTRYADSVKGRFTISRDNAKNTVYLQMNSLKPEDTAVYYCYVWVGHTYYGQGTQVTVSA
- IC50, inhibition of pseudovirus infection of 293T-ACE2 cells: 550 nM
